The target of experiment [1] is Haliangium ochraceum encapsulin (Haliangium ochraceum) (UniProt D0LZ74). Briefly: cryo-EM structure; Loaded-Enc (3 mg/ml) vitrified; reconstruction with imposed I1 symmetry (2.5 A), then symmetry expansion and masked focused refinement of the fivefold pentamer (closed 2.2 A, open 2.4 A), Relion3.1.
The target of experiment [2] is Haliangium ochraceum encapsulated ferritin (Haliangium ochraceum) (UniProt D0LZ73). Nature of the experiment: SDS-PAGE; purified Loaded-Enc on 15% acrylamide SDS-PAGE, Coomassie blue stain.
Experiment [3] has the same target. Nature of the experiment: LC-MS; purified Loaded-Enc at ~2 uM on a reverse-phase C4 column, water/acetonitrile with 0.1% formic acid; deconvoluted masses.
For experiment [4], the target named is Haliangium ochraceum encapsulin (Haliangium ochraceum) (UniProt D0LZ74). Nature of the experiment: HDX-MS; Empty-Enc against Loaded-Enc nanocompartments; labelling in phosphate buffer in D2O pH 8.0 at 4 C, up to 24 hours; pepsin digestion.
Experiment [5] deals with Haliangium ochraceum encapsulated ferritin (Haliangium ochraceum) (UniProt D0LZ73). Briefly: cryo-EM structure; Loaded-Enc; asymmetric (C1) reconstruction without imposed symmetry, 3.7 A; local refinement of a single EncFtn density in CryoSPARC with PDB 5N5F docked.
The target in experiment [6] is Haliangium ochraceum encapsulin (Haliangium ochraceum) (UniProt D0LZ74). The description is as above. The following applies: scale: EncFtn decamers per encapsulin nanocompartment.

Regarding “Haliangium ochraceum encapsulin (from UniProt D0LZ74 1-266) (natural protein)”, the stoichiometry N (as a rule, a count of units in the complex or per binding partner) in experiment [1] was 60.
On to “Haliangium ochraceum encapsulated ferritin (from UniProt D0LZ73 1-131) (enzyme)”, for which the stoichiometry N in experiment [2] is 2; in experiment [3], 2; in experiment [5] it was 10; in experiment [6] it was 4. In experiment [4], this substance registered a reduction in hydrogen/deuterium exchange of encapsulin peptide 21-37, Loaded-Enc against Empty-Enc of 12%.

The values above are taken from paper PMC8791618.
